According to patent publication US20200317779A1:

Target: CD3 on human T cells (H9 cells, ATCC HTB-176) (human)
Assay: flow cytometry on H9 cells, PE anti-human IgG alone (no primary antibody), negative control

Sequence of CD3 on human T cells (H9 cells, ATCC HTB-176) (human) (P07766 23-207, chain 1 of 3): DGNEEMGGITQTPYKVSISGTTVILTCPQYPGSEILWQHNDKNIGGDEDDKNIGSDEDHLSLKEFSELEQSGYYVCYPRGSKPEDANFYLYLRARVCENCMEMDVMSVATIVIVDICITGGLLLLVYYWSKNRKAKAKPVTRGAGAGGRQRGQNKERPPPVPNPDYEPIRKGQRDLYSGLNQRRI
Sequence of CD3 on human T cells (H9 cells, ATCC HTB-176) (human) (P04234 22-171, chain 2 of 3, further chain): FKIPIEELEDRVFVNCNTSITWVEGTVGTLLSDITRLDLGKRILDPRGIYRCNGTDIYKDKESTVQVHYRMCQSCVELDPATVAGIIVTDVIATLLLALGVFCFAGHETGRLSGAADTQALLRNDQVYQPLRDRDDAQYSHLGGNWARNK
Sequence of CD3 on human T cells (H9 cells, ATCC HTB-176) (human) (P09693 23-182, chain 3 of 3, further chain): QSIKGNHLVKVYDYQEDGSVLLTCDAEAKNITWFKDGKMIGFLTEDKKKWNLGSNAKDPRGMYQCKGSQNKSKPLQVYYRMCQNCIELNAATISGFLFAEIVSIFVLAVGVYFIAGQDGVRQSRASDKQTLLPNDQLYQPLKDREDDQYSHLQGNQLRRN

a-HuIgG PE (antibody)
Mean : PE-A: 138
